The values that follow come from US20250019440A1 (Zymeworks, published 2025).

One test deals with PD-L1 on cells (UniProt Q9NZQ7 19-290, limits assumed). Briefly: cell-based or functional assay.
A further test deals with Human CD3 (recombinant) (human). Briefly: SPR, CD3 amine-coupled, variant as analyte, 1:1 model. (SPR reads the build-up and loss of mass on a sensor chip optically.)
Test [1] concerns the target T1, Human PD-L1 (human, UniProt Q9NZQ7 19-239).
T1 construct: Amine-coupled to a CM5 chip for SPR; also called recombinant human PD-L1
Put plainly: SPR, PD-L1 amine-coupled, variant as analyte, 1:1 model; third of three variants in the merged cell (G1 4-1 PD-1).

The target of test [2] is T1, Human PD-L1. Briefly: SPR, PD-L1 amine-coupled, variant as analyte.
For test [3], the target named is T1, Human PD-L1. Put plainly: SPR, PD-L1 amine-coupled, variant as analyte, 1:1 model.
The target of test [4] is T1, Human PD-L1. The test is described as above. The source holds these as a separate data set.
In another test the target is T2, Human PD-L2 (human, UniProt Q9BQ51 20-219).
T2 construct: Amine-coupled to a CM5 chip for SPR; also called recombinant PD-L2
T2 sequence (looked up): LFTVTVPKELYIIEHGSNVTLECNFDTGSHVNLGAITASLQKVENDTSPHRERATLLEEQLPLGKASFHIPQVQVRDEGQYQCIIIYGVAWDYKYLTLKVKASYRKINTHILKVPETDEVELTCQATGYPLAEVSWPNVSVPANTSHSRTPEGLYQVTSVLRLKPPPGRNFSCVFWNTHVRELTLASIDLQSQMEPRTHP
Briefly: SPR, PD-L2 amine-coupled, variant as analyte, 1:1 model.

The target of the next test is T3, Human CLDN18.1 (human, UniProt P56856 1-261).
T3 construct: On transfected HEK293-6E cells
Briefly: flow cytometry, purified construct on transfected HEK293-6E cells. On the technique in general: In flow cytometry, cells or beads pass a laser one at a time.

A further test addresses T4, Human CLDN18.2 (human).
T4 construct: On transfected HEK293-6E cells; also called Claudin18.2
Put plainly: FACS on transfected HEK293-6E cells, 4 parameter logistic fit.

The target of the next test is T5, Cynomolgus monkey CLDN18 (cynomolgus monkey).
T5 construct: On transfected HEK293-6E cells; also called Cyno CLDN18; cynomologus monkey CLDN18.2 ortholog
T5 chain: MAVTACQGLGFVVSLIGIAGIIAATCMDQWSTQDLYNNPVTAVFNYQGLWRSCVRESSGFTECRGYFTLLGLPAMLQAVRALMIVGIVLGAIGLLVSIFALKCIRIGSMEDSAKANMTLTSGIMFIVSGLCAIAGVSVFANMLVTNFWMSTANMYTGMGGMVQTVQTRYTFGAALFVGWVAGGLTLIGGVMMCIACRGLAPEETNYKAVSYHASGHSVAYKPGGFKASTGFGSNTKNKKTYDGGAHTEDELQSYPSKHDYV
The description is as above.

The target in the next test is T6, Mouse CLDN18 A2.1 (mouse, UniProt P56857 10-264).
T6 construct: On transfected HEK293-6E cells; also called Mouse CLDN18 2.1; mouse CLDN18.2 ortholog
T6 chain: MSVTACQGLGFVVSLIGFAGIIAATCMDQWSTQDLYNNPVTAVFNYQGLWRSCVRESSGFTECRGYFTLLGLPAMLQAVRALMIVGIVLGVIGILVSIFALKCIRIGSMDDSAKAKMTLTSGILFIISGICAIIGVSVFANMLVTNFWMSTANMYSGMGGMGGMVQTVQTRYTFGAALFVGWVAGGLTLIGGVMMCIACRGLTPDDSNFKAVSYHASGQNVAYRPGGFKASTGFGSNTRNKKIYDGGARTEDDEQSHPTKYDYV
Described as above.

Chain of Human CD3 (recombinant) (human) (chain, as listed by the source): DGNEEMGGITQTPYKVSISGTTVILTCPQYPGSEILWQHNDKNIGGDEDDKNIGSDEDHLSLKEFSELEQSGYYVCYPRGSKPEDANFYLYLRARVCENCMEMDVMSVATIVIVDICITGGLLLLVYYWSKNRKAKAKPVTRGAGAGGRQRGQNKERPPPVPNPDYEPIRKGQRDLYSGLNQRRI
T1 sequence (Q9NZQ7 19-239 limits assumed): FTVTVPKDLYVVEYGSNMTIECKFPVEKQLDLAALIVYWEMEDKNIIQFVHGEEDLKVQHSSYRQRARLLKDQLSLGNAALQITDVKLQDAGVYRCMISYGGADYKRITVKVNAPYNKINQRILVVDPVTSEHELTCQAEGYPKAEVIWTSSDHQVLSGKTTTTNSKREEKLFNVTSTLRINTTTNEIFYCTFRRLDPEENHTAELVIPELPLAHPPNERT
Chain of PD-L1 on cells (Q9NZQ7 19-290 limits assumed): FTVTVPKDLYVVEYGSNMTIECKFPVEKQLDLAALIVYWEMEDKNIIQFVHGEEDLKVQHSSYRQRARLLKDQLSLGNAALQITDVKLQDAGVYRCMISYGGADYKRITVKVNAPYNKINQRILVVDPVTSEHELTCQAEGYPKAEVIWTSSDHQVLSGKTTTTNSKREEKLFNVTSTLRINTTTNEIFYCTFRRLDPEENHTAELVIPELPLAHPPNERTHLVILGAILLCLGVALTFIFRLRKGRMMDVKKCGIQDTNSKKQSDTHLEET
T3 sequence (P56856 whole entry): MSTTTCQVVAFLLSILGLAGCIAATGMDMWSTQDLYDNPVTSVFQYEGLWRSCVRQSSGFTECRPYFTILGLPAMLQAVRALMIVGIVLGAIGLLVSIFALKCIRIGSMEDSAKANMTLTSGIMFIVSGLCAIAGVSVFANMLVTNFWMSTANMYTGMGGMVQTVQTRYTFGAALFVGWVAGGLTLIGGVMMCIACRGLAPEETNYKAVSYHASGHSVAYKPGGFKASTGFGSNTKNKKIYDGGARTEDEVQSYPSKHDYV

B1: v38737 (other)
heavy 1: EVQLVESGGGLVQPGGSLRLSCAASGVTFNYYGMSWIRQAPGKGLEWVASITSSGGRIYYPDSVKGRFTISRENTQKTLYLQMNSLRAEDTAVYYCTLDGRDGWVAYWGQGTLVTVSSASTKGPSVFPLAPSSKSTSGGTAALGCLVKDYFPEPVTVSWNSGALTSGVHTFPAVLQSSGLYSLSSVVTVPSSSLGTQTYICNVNHKPSNTKVDKKVEPKSCDKTHTCPPCPAPEAAGGPSVFLFPPKPKDTLMISRTPEVTCVVVSVSHEDPEVKFNWYVDGVEVHNAKTKPREEQYNSTYRVVSVLTVLHQDWLNGKEYKCKVSNKALPAPIEKTISKAKGQPREPQVYVYPPSRDELTKNQVSLTCLVKGFYPSDIAVEWESNGQPENNYKTTPPVLDSDGSFALVSKLTVDKSRWQQGNVFSCSVMHEALHNHYTQKSLSLSPGGGGGSGDRPWNPPTFSPALLVVTEGDNATFTCSFSNTSESFRLVWHRESPGYETDTLASFPEDRSTPLPDARFRVTQLPNGRDFHMSVVRARRNDSGTYVCGAIAFHPVIQIKESLRAELRVTE
light: NFMLTQPHSVSESPGKTVTISCKRNTGNIGSNYVNWYQQHEGSSPTTIIYRNDKRPDGVSDRFSGSIDRSSKSASLTISNLKTEDEADYFCQSYSSGFIFGGGTKLTVLGQPKAAPSVTLFPPSSEELQANKATLVCLISDFYPGAVTVAWKADSSPVKAGVETTTPSKQSNNKYAASSYLSLTPEQWKSHRSYSCQVTHEGSTVEKTVAPTECS
heavy 2: QVQLVESGGGLVQPGGSLRLSCSVSGIDLSSNPMIWVRQAPGKGLQYIGIIDTDGSTYYADWAKGRFTISKDSTTVYLQINSPRAEDTAVYYCARRLHGSSNGYYDDLWGQGTLVTVSSGGGGSGGGGSGGGGSGGGGSDGQMTQSPSSVSASVGDRVTITCQASQSIYSYLSWYQQKPGQRPKLLIYKASTLASGVPSRFSGSGSGTDFTLTISSVQPEDFATYYCQQGYTVTNVDKNTFGGGTKVEIKAAEPKSSDKTHTCPPCPAPEAAGGPSVFLFPPKPKDTLMISRTPEVTCVVVSVSHEDPEVKFNWYVDGVEVHNAKTKPREEQYNSTYRVVSVLTVLHQDWLNGKEYKCKVSNKALPAPIEKTISKAKGQPREPQVYVLPPSRDELTKNQVSLLCLVKGFYPSDIAVEWESNGQPENNYLTWPPVLDSDGSFFLYSKLTVDKSRWQQGNVFSCSVMHEALHNHYTQKSLSLSPG
On to B1, for which the “EC50 (read off the curve); hybrid PD-1/PD-L1 reporter gene assay, delta RLU, PD-1+ Jurkat T cells with SNU-620 cells, top left graph; composite signal of CD3 engagement and PD-1:PD-L1 blockade” value in the test with PD-L1 on cells was approximately 0.5 nM. Besides, the Kd in the test with Human CD3 (recombinant) was determined as 3.5 nM; with Human PD-L1 [1] it was 280 nM.

B2: v38426 (other)
heavy 1: EVQLVESGGGLVQPGGSLRLSCAASGVTFNYYGMSWIRQAPGKGLEWVASITSSGGRIYYPDSVKGRFTISRENTQKTLYLQMNSLRAEDTAVYYCTLDGRDGWVAYWGQGTLVTVSSASTKGPSVFPLAPSSKSTSGGTAALGCLVKDYFPEPVTVSWNSGALTSGVHTFPAVLQSSGLYSLSSVVTVPSSSLGTQTYICNVNHKPSNTKVDKKVEPKSCDKTHTCPPCPAPEAAGGPSVFLFPPKPKDTLMISRTPEVTCVVVSVSHEDPEVKFNWYVDGVEVHNAKTKPREEQYNSTYRVVSVLTVLHQDWLNGKEYKCKVSNKALPAPIEKTISKAKGQPREPQVYVYPPSRDELTKNQVSLTCLVKGFYPSDIAVEWESNGQPENNYKTTPPVLDSDGSFALVSKLTVDKSRWQQGNVFSCSVMHEALHNHYTQKSLSLSPGGGGGSGQVQLVESGGGLVQPGGSLRLSCSVSGIDLSSNPMIWVRQAPGKGLQYIGIIDTDGSTYYADWAKGRFTISKDSTTVYLQINSPRAEDTAVYYCARRLHGSSNGYYDDLWGQGTLVTVSSGGGGSGGGGSGGGGSGGGGSDGQMTQSPSSVSASVGDRVTITCQASQSIYSYLSWYQQKPGQRPKLLIYKASTLASGVPSRFSGSGSGTDFTLTISSVQPEDFATYYCQQGYTVTNVDKNTFGGGTKVEIK
light: NPPTFSPALLVVTEGDNATFTCSFSNTSESFVLNWYRMSPSNQTDALAAFPEDRSQPGQDARFRVTQLPNGRDFHMSVVRARRNDSGTYLCGAASLAPKAQIKESLRAELRVTEGGGGSGNFMLTQPHSVSESPGKTVTISCKRNTGNIGSNYVNWYQQHEGSSPTTIIYRNDKRPDGVSDRFSGSIDRSSKSASLTISNLKTEDEADYFCQSYSSGFIFGGGTKLTVLGQPKAAPSVTLFPPSSEELQANKATLVCLISDFYPGAVTVAWKADSSPVKAGVETTTPSKQSNNKYAASSYLSLTPEQWKSHRSYSCQVTHEGSTVEKTVAPTECS
heavy 2: QVQLVESGGGLVQPGGSLRLSCSVSGIDLSSNPMIWVRQAPGKGLQYIGIIDTDGSTYYADWAKGRFTISKDSTTVYLQINSPRAEDTAVYYCARRLHGSSNGYYDDLWGQGTLVTVSSGGGGSGGGGSGGGGSGGGGSDGQMTQSPSSVSASVGDRVTITCQASQSIYSYLSWYQQKPGQRPKLLIYKASTLASGVPSRFSGSGSGTDFTLTISSVQPEDFATYYCQQGYTVTNVDKNTFGGGTKVEIKAAEPKSSDKTHTCPPCPAPEAAGGPSVFLFPPKPKDTLMISRTPEVTCVVVSVSHEDPEVKFNWYVDGVEVHNAKTKPREEQYNSTYRVVSVLTVLHQDWLNGKEYKCKVSNKALPAPIEKTISKAKGQPREPQVYVLPPSRDELTKNQVSLLCLVKGFYPSDIAVEWESNGQPENNYLTWPPVLDSDGSFFLYSKLTVDKSRWQQGNVFSCSVMHEALHNHYTQKSLSLSPG
notes: CD3 Fab with C-term Cldn18.2 scFv x Cldn18.2 scFv Fc with attenuated (KO) PD-1 attached to CD3 LC (N-term)
Regarding B2, in the test with Human PD-L1 [2], the binding result is reported as “no binding”. Moreover, the Kd in the test with Human CD3 (recombinant) is 77 nM.

B3: v38739 (other)
heavy 1: EVQLVESGGGLVQPGGSLRLSCAASGVTFNYYGMSWIRQAPGKGLEWVASITSSGGRIYYPDSVKGRFTISRENTQKTLYLQMNSLRAEDTAVYYCTLDGRDGWVAYWGQGTLVTVSSASTKGPSVFPLAPSSKSTSGGTAALGCLVKDYFPEPVTVSWNSGALTSGVHTFPAVLQSSGLYSLSSVVTVPSSSLGTQTYICNVNHKPSNTKVDKKVEPKSCDKTHTCPPCPAPEAAGGPSVFLFPPKPKDTLMISRTPEVTCVVVSVSHEDPEVKFNWYVDGVEVHNAKTKPREEQYNSTYRVVSVLTVLHQDWLNGKEYKCKVSNKALPAPIEKTISKAKGQPREPQVYVYPPSRDELTKNQVSLTCLVKGFYPSDIAVEWESNGQPENNYKTTPPVLDSDGSFALVSKLTVDKSRWQQGNVFSCSVMHEALHNHYTQKSLSLSPGGGGGSGDRPWNPPTFSPALLVVTEGDNATFTCSFSNTSESFVLNWYRMSPSNQTDKLAAFPEDRSQPGQDARFRVTQLPNGRDFHMSVVRARRNDSGTYLCGAISLAPKLQIKESLRAELRVTE
light: NFMLTQPHSVSESPGKTVTISCKRNTGNIGSNYVNWYQQHEGSSPTTIIYRNDKRPDGVSDRFSGSIDRSSKSASLTISNLKTEDEADYFCQSYSSGFIFGGGTKLTVLGQPKAAPSVTLFPPSSEELQANKATLVCLISDFYPGAVTVAWKADSSPVKAGVETTTPSKQSNNKYAASSYLSLTPEQWKSHRSYSCQVTHEGSTVEKTVAPTECS
heavy 2: QVQLVESGGGLVQPGGSLRLSCSVSGIDLSSNPMIWVRQAPGKGLQYIGIIDTDGSTYYADWAKGRFTISKDSTTVYLQINSPRAEDTAVYYCARRLHGSSNGYYDDLWGQGTLVTVSSGGGGSGGGGSGGGGSGGGGSDGQMTQSPSSVSASVGDRVTITCQASQSIYSYLSWYQQKPGQRPKLLIYKASTLASGVPSRFSGSGSGTDFTLTISSVQPEDFATYYCQQGYTVTNVDKNTFGGGTKVEIKAAEPKSSDKTHTCPPCPAPEAAGGPSVFLFPPKPKDTLMISRTPEVTCVVVSVSHEDPEVKFNWYVDGVEVHNAKTKPREEQYNSTYRVVSVLTVLHQDWLNGKEYKCKVSNKALPAPIEKTISKAKGQPREPQVYVLPPSRDELTKNQVSLLCLVKGFYPSDIAVEWESNGQPENNYLTWPPVLDSDGSFFLYSKLTVDKSRWQQGNVFSCSVMHEALHNHYTQKSLSLSPG
B3: the Kd in the test with Human CD3 (recombinant) is 39 nM; with Human PD-L1 [3], 310 nM; with Human PD-L1 [4], 110 nM; with Human PD-L2, 230 nM.

B4: v35777 (antibody, human IgG1, V domains shown)
VH: QSLEESGGRLVTPGTPLTLTCTVSGIDLSSNPMIWVRQAPGKGLQYIGIIDTDGSTYYASWAKGRFTGSKTSTTVDLKITSPTTEDTATYFCARRLHGSSNGYYDDLWGQGTLVTISS
VL: DGVMTQTPSSVSAAVGGTVTIKCQASQSIYSYLSWYQQKPGQRPKLLIYKASTLASGVPSRFKGSGSGTEFTLTISGVQCDDAATYYCQQGYTVTNVDKNTFGGGTEVVVK
notes: Rabbit variable regions on human IgG1 (constant region starts at alanine Kabat-114) and human C kappa (starts at arginine Kabat-108); also called parental rabbit chimeric; rabbit-human chimeric IgG1/kappa antibody construct
Take B4: the binding result with Human CLDN18.1 is on record as “no binding”. For the same molecule, the figures for the Bmax in the test with Human CLDN18.2, with Cynomolgus monkey CLDN18 and with Mouse CLDN18 A2.1 were 2070, 1660 and 1640, respectively. The figures for the EC50 with Human CLDN18.2, in the test with Cynomolgus monkey CLDN18 and with Mouse CLDN18 A2.1 were 1.29 nM, 0.48 nM and 0.87 nM, respectively.

For orientation: Kd means a measure of binding affinity in units of concentration. As a reminder, the EC50 is the concentration giving half of the maximal effect.
